Measured values reported in PMC8528048, “Chemoselective cysteine or disulfide modification via single atom substitution in chloromethyl acryl reagents” (Chemical Science, 2021).

Tested on: Micrococcus lysodeikticus lyophilized cell suspensions
Test: Lysozyme enzymatic assay: absorbance change at 450 nm of cell suspensions
Type: biochemical
Conditions: 0.01 mg/mL enzyme, 10 μL into 250 μL cell suspension 0.32 mg/mL, 66 mM phosphate buffer pH 6.2; A450 every minute for 15 minutes; ratio of slopes minus blank
Experimental: Lysozyme is an antimicrobial enzyme that is capable of hydrolyzing the 1,4-beta-linkages in the peptidoglycan of Gram-positive bacterial cell walls, thus leading to the lysis of bacteria (Fig. 8a). Therefore, the catalytic activity of modified lysozyme was assessed by investigation of the absorbance change at 450 nm of Micrococcus lysodeikticus lyophilized cell suspensions over time, where the activity of the modified lysozyme is proportional to their capability to hydrolyze the bacterial cell walls.[45] In comparison to native lysozyme, the disulfide-modified lysozyme Ly-PEG-Tz retained 86% of its activity (Fig. 8b, calculation details shown in Section 8.3 in ESI ^†).
Fig. 8 (a) The hydrolysis of 1,4-beta-linkages between N-acetyl-D-glucosamine (NAG) and N-acetylmuramic acid (NAM) residues in peptidoglycans of Gram-positive bacterial cell walls. The absorbance of the cell suspension at 450 nm was monitored to evaluate their catalytic activity and the rate of absorbance decrease was proportional to its activity. […]
The lysozyme enzymatic assay was performed according to the protocol form Sigma Aldrich’s technical bulletin. […] 250 μL of the cell suspensions was added to the 96-well plate and the absorbance was measured at 450 nm. According to the obtained absorbance, the concentration was carefully adjusted to ensure the absorbance at 450 nm between 0.6 and 0.7. […]

| Substance | catalytic activity retained in comparison to native lysozyme |
| --- | --- |
| Ly-PEG5-Tz: lysozyme statistically modified at lysines with Tz-PEG5-NHS; mixture of no, single and dual modification | Total loss of the activity |
| Ly-PEG-Tz: lysozyme (hen egg white) modified at the C6–C127 disulfide with PEG-tetrazine via compound 8 | 86% |
